Results published in the nanobody polyreactivity screen of Harvey et al. (2022).

test: yeast display, Sf9 membrane polyspecificity reagent, FACS + sequencing; frameworks hold sequencing errors
How it was run: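 Polyreactivity labels are assigned by the sorting gate from which each nanobody was recovered. The gates were low and high (top ~1%), set on anti-HA fluorescence for expression and streptavidin fluorescence for reagent binding. Before sorting, galactose-induced (36–48 hours) yeast display cells were stained for 1 hour at 4 °C with 10% biotinylated, detergent-solubilized Sf9 membrane reagent.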

| Sequence | polyreactivity (PSR sort gate) |
| --- | --- |
| QVQLVESGGGLVQAGGSLRLSCAASGFIFRSYAMGWYRQAPGKERELVAVISRRGVNTHYADSVKGRFTISRDNAKNTVYLQMNSLKPEDTAVYYCAKGLTALGDYWGQGTQVTVSS | high polyreactivity |
| QVQLVESGGGLVQAGGSLRLSCAASGFIFRTYAMGWYRQAPGKERELVAAITYSAGSTYYADSVKGRFTISRDNAKNTVYLQMNSLKPEDTAVYYCNVRKTWYGYSVTGRYDYWGQGTQVTVSS | low polyreactivity |
| QVQLVESGGGLVQAGGSLRLSCAASGFIFRWNAMGWYRQSPGKERELVATISNGGSTYYADSVKGRFTISRDNAKNSVYLQMNSLKPEDTAVYYCAADYWYFSISITDYDYWGQGTQVTVSS | high polyreactivity |
| QVQLVESGGGLVQAGGSLRLSCAASGFIFRWYAMGWYRQAPGKERELVAAISRSGDSTYYADSVKGRFTISRDNAKNTVYLQKNSLKPEDTAVYYCAADDRYYTYGYDYWGQGTQVTVSS | low polyreactivity |
| QVQLVESGGGLVQAGGSLRLSCAASGFIFRWYAMGWYRQAPGKERELVAAISSSSGSTYYADSVKGRFTISRDNAKNTVYLQMNSLKPEDTAVYYCAAESNRRFEGEYWGQGTQVTVSS | high polyreactivity |
| QVQLVESGGGLVQAGGSLRLSCAASGFIFRWYAMGWYRQAPGKERELVAGISASGGSTYYADSVKGRFTISRDNAKNTVYLQMNSLKPEDTAVYYCAAYRRNSRWELDYWGQGTQVTVSS | high polyreactivity |
| QVQLVESGGGLVQAGGSLRLSCAASGFIFRYNTMGWYRQAPGKERELVATINRSGGSTYYADSVKGRFTISRDNAKNTVYLQMNSLKPEDTAVYYCAARSGTRWRSGYYYWGQGTHVTVSS | high polyreactivity |
| QVQLVESGGGLVQAGGSLRLSCAASGFIFRYYALGWYRQAPGKERELVAAIDYSGGSTNYADSVKGRFTISRDNAKNTVYLQMNSLKPEDNAVYYCNAEYTWHRGYDYWGQGTQVTVSS | low polyreactivity |
| QVQLVESGGGLVQAGGSLRLSCAASGFIFRYYAMGWYIQAPGKERELVATITRSGGSTYYADSVKGRFTLSRDNAKNTVYLQMNSLKPEDTAVYYCAADIYWYRGYGYWGQRTQVTVSS | high polyreactivity |
| QVQLVESGGGLVQAGGSLRLSCAASGFIFRYYAMGWYRPAPGKERELVAAISASGGSTYYADSVKGRCTISRDNAKNSDYLLMNSLKPEDTAVYYCATYYQKYRSEYWGQGTQVTVSS | high polyreactivity |
| QVQLVESGGGLVQAGGSLRLSCAASGFIFRYYAMGWYRQAPGKERELVAAISASGVSTYYADSVKGRFTISRDNAKNTVYLQMNSLKPEDTAVYYCNKVTRGGYDYWGQGSQVTVSS | high polyreactivity |
| QVQLVESGGGLVQAGGSLRLSCAASGFIFRYYAMGWYRQAPGKERELVAAISSGGRTSYADSVKGRFTISRDNAKNTVYLQMNSLKPEDTAVYYCAADRWRGLFYYGKDYWGQGTQVTVSS | high polyreactivity |
| QVQLVESGGGLVQAGGSLRLSCAASGFIFRYYAMGWYRQAPGKERELVAAISWSGGSTNYADSVKGRFTISRDNAKNTVYLQMNSLKPEDTAVYYCATRYRRWSTVVQDDYWGQGTQVTVSS | low polyreactivity |
| QVQLVESGGGLVQAGGSLRLSCAASGFIFRYYAMGWYRQAPGKERELVAAITKSGGRTFYADSVKGRFTISRDNAKNTVYLQMNSLKPEDTAVYYCAARANGRDDYWGQGTQVTVSS | high polyreactivity |
| QVQLVESGGGLVQAGGSLRLSCAASGFIFRYYAMGWYRQAPGKERELVARISSSGGRTYYADSVKGRFTISRDNAKNTVYLQMNSLKPEDTAVYYCNTADYHGRWAFAWYGDYWGQGTQVTVSS | high polyreactivity |
| QVQLVESGGGLVQAGGSLRLSCAASGFIFRYYAMGWYRQAPGKERELVASIDWSGGNTYYADSVKGRFTISRDNAKNTVYLQMNSLKPEDTAVYYCNRRGMDWGQVTQVTVSS | low polyreactivity |
| QVQLVESGGGLVQAGGSLRLSCAASGFIFRYYAMGWYRQAPGKERELVATISASGGRTYYADSVKGRFTISRDNAKNTVYLQMNSLKPEDTAVYYCAVRPYWLGTYAPVAFDYWGQGTQVTVSS | high polyreactivity |
| QVQLVESGGGLVQAGGSLRLSCAASGFIFRYYAMGWYRQAPGKERELVATISYRGASTYYADSVKGRFTISRDNAKNTVYLQMNSLKPEDTAVYYCAADWGWYWYIYDYWGQGTQVTVSS | low polyreactivity |
| QVQLVESGGGLVQAGGSLRLSCAASGFIFRYYAMGWYRQAPGKEREMVAAISRSGGSTYYADSVKGRFTISRDNANNTVYLQMKSLKPEDTAVYYCAALQSRSWYQFNYWGQGTQVTVSS | high polyreactivity |
| QVQLVESGGGLVQAGGSLRLSCAASGFIFSAYAMGWYRQAPGKERELVAAITKRGGTTYYADSVKGRFTISRDNAKNTVYLQMNSLKPEDTAVYYCATRQLSKVKDMDYWGQGTQVTVSS | high polyreactivity |
| QVQLVESGGGLVQAGGSLRLSCAASGFIFSEYAMGWYRQAPGKDMELVAAISSGGNTYYADSVKGRFTISRDNAKNTVYLQMNSLKTEDTAVYYCNADNYAFYTQRPLDGSATYDYWGQGTQVTVSS | low polyreactivity |

| Sequence | polyreactivity (PSR sort gate) |
| --- | --- |
| QVQLVESGGGLVQAGGSLRLSCAASGFIFSGNAMGWYRQAPGKERELVAAISGRGGRTYYADSVKGRFTISRDNAKNTVYLQMNSLKPEDTAVYYCAADNPYLGRKFDYWGQGTQVTVSS | high polyreactivity |
| QVQLVESGGGLVQAGGSLRLSCAASGFIFSGNAMGWYRQAPGKERELVAAISSGGSTNYADSVKGRFTISRDNAKNTVYLQMNSLKPEDTAVYYCNADSPERIPVDLENDYWGQGTQVTVSS | low polyreactivity |
| QVQLVESGGGLVQAGGSLRLSCAASGFIFSGNAMGWYRQAPGKERELVAAITRGGITYYADSVKGRFTISRDNAKNTVYLQMNSLKPEDTAVYYCNALGFGSNYDYWGQGTQVTVSS | high polyreactivity |
| QVQLVESGGGLVQAGGSLRLSCAASGFIFSGYAMGWYRQAPGKERELVAAITRSGSRTYYADSVKGRFTISRDNAKNTVYLQMNSLKPEDTAVYYCAKDKPKYGISTMDYWGQGTQVTVSS | high polyreactivity |
| QVQLVESGGGLVQAGGSLRLSCAASGFIFSHNAMGWYRQAPGKERELVAAISDGGGRTYYADSVKGRFTISRDNAKNTVYLQMNSLKPEDTEVYYCAVLWPYYERYYYWGQGTQVTVSS | high polyreactivity |
| QVQLVESGGGLVQAGGSLRLSCAASGFIFSKNVMGWYRQATGKERELVALINRSGGTTYYADSVKGRFTISRDNAKNTVYLQMNSLKPEDTAVYYCAARRYGYTSITWYDYLGQGTQVTVSS | high polyreactivity |
| QVQLVESGGGLVQAGGSLRLSCAASGFIFSKYGMGWYRQAPGKERELVAAISIRGGNTYYADSVKGRFTISRDNAKNTVYLQMNSLKPEDTAVYYCNALSYGRYLNYRGGMDYWGQGTQVTVSS | high polyreactivity |
| QVQLVESGGGLVQAGGSLRLSCAASGFIFSLNAMGWYRQAPGKEREFVASITWSGTRTYYADSVKGRFTISRDNAKNTVYLQMNSLKPEDTAVYYCAARTKRSYEYQAFYYWGQGTQVTVSS | high polyreactivity |
| QVQLVESGGGLVQAGGSLRLSCAASGFIFSNNAMGWYRQAHGKERELVAAISKSGGGTSYADSVKGRFTISRDNAKNTVYFQMNSLKPEDSAVYYCAARFRQFRVDYWGQGTQVTVSS | high polyreactivity |
| QVQLVESGGGLVQAGGSLRLSCAASGFIFSNNAMGWYRQAPGKERELVAAITASGGRTYYADSVKGRFTISRDNAKNTVYLQMNSLKPEDTSVYYCAAALYDIMGYWGQGTQLTVSS | high polyreactivity |
| QVQLVESGGGLVQAGGSLRLSCAASGFIFSNNAMGWYRQAPGKERELVAAITSSGGRTYYADSVKGRFTISRDNAKNTVYLQMNSLKPEDTAVYYCAAVWRTSVWTKYGYWGQGTQVTVSS | high polyreactivity |
| QVQLVESGGGLVQAGGSLRLSCAASGFIFSPNAMGWYRQAPGKEREFVAAIRYSGTSTSYADSVKGRFTISRDNAKNTVYLQMNSLKPEDTAVYYCNAQWRFSRGYTYNYWGQGTQVTVSS | high polyreactivity |
| QVQLVESGGGLVQAGGSLRLSCAASGFIFSPYAMGWYRQAPGKERELVAAISSGGSTYYADSVKGRFTISRDNAKNTVYLQMNSLKPEDTAVYYCAASWGRRKPRMDYWGLGTQVTVSS | high polyreactivity |
| QVQLVESGGGLVQAGGSLRLSCAASGFIFSPYVMGSYRQAPGKERELVAAISSIGGSTYYADSVKGRFTISRDNAKKTVYLQMNSLKPEDTAVYYCADSVYYYASRYDYWGQGTQVTVSS | low polyreactivity |
| QVQLVESGGGLVQAGGSLRLSCAASGFIFSQNTMGWYRQAPGKERELVAAISKSGGTTYYADSVKGRFTISRDNAKNTVYLQMNSLKPEDTAVYYCARDKGYVSYRYNYWGQGTQVTVSS | high polyreactivity |
| QVQLVESGGGLVQAGGSLRLSCAASGFIFSRNAMGWYRQAPGKERELVAAISSTGGITYYADSVKGRFSISRDNAKNTVYLQMNSLKPEDTAVYYCAACFYGYARHTWYNYWGQGTQVTVSS | high polyreactivity |
| QVQLVESGGGLVQAGGSLRLSCAASGFIFSRYAMGWYRQAAGKERELVAAISYSGSSTYYADSVKGRFTISRDNAKNTVFLQMNSLKPEDTGVYYCNAVTQITGSSDGDYWGQGTQVTVSS | high polyreactivity |
| QVQLVESGGGLVQAGGSLRLSCAASGFIFSRYAMGWYRQAPGKERELVAAISIGGSTYYADSVKGRFTISRDNAKNTVYLQMNSLKPEDTAVYYCAVDYRHSSSWNAGPWEMYYWGQGTQVTVSS | low polyreactivity |
| QVQLVESGGGLVQAGGSLRLSCAASGFIFSRYFMGWYRQAPGKERELVAAISWNVGSTYYADSVKGRFTISRDNAKNTVYLQMNSLKPEDTAVYYCAARDRRSVTMDYWGHGTQVTVSS | high polyreactivity |
| QVQLVESGGGLVQAGGSLRLSCAASGFIFSSHAMGWYRQAPGKERELVAAISRSGGRTYYADSVKGRFTISRDNAKNTVYLQMNSLKPEDTAVYYCAAKRWWQYYWGQGTQVTVSS | high polyreactivity |
